# According to patent publication US20220259294A1:
# B1: TRL295 (antibody, V domains shown)
# VH: QVQLVESGGGLVQPGGSLRLSCAASGFPFSSYAMSWVRQAPGKGLEWVSAISGNGADSYYADSVKGRFTTSRDKSKNTVYLQMNRLRAEDTAVYYCAKDMRRYHYDSSGLHFWGQGTLVTVSS
# VL: DIELTQAPSVSVYPGQTARITCSGDALPKQYAYWYQQKPGQAPVVVIYKDSERPSGISERFSGSSSGTTVTLTISGVQAGDEADYYCQSVDTSVSYYVVFGGGTKLTVL
# Legend:
# [1] = biological target: IHF peptide of H. influenzae (Haemophilus influenzae); assay: Kd at pH 7.5 (Octet biosensor per Example 1)
# [2] = biological target: IHF peptide of H. influenzae (Haemophilus influenzae); assay: Kd at pH 6.5 (Octet biosensor per Example 1)
# [3] = biological target: IHF peptide of H. influenzae (Haemophilus influenzae); assay: Kd at pH 5.5 (Octet biosensor per Example 1)
# [4] = biological target: IHF peptide of H. influenzae (Haemophilus influenzae); assay: Kd at pH 4.5 (Octet biosensor per Example 1)
binder,measurement,setting,value
B1,Kd,[1],4.2 nM
same,Kd,[2],2.8 nM
same,Kd,[3],2.8 nM
same,Kd,[4],3.7 nM
